From PMC4572887, “GnT1IP-L specifically inhibits MGAT1 in the Golgi via its luminal domain” (eLife, 2015)

Tests used:
[1] = molecular target: the molecule itself; test: FRET or BRET; COS-7 cells stably expressing GnT1IP-L-mVen, co-transfected with GnT1IP-L-mChe and MGAT1-HA as competitor, with or without 40 µM chloroquine for 4 or 16 hr; FRET efficiency by acceptor bleaching
[2] = molecular target: the molecule itself; test: FRET or BRET; acceptor-bleaching FRET microscopy on fixed cells, mVen donor and mChe acceptor; COS-7 cells stably expressing GnT1IP-L-mVen, transiently transfected with the mChe-tagged partner; untreated controls, recovery 4 hr after removal of nocodazole, and 40 µM chloroquine for 4 or 16 hr
human MGAT1-mChe = molecular target: T1, human MGAT1-mChe (human, UniProt P26572 1-445); test: as above; settings: partners not purified
T1 construct: N-acetylglucosaminyltransferase MGAT1, human, full-length cDNA clone; also called GlcNAc-TI; GnT-1; source: COS-7 or Lec1 CHO cells, transiently transfected; in cells; not shown: monomeric mCherry (mChe), C-terminal, kept
T1 sequence (looked up): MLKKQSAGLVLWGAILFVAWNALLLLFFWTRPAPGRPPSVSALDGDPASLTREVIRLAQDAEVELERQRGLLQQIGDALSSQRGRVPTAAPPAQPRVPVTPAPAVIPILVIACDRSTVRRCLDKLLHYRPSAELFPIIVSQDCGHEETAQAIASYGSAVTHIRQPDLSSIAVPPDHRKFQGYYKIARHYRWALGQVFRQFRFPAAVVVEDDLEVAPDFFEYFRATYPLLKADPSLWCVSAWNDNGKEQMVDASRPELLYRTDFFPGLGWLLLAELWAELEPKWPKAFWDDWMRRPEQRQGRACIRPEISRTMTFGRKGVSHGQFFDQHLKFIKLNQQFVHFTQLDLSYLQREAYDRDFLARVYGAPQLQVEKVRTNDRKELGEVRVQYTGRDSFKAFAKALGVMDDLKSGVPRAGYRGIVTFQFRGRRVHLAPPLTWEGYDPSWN

B1: Mouse GnT1IP-L-mVen (natural protein, UniProt Q9D4R2-2 1-417, looked up)
chain: MCLGESVGDLRTVATAPWEGEQARGVKDAGSVPVQPGVGSDAATMKAKNVNLLFAFVAVLLFGFSCFCISRMNQTNNQLINCRNHVLEFKEIMLRLKNKSENHHQDLMQVLYQMKRKAAHTTRSSGNFLEKKGSILSQHETLPNQFEVLKYFLPHLRTAGKLYPAIATSKGRAGVSFALGISTINRGNHTYLKQTLTSVLSRMTPEEEEDSVVIVSVADTDESYLKSVVRMVKTKFRKQVQSGVLEVISIPTLFYPQTLLDKKTKTDSESWQIKQVLDFCILMLYAQPKATYYLQLEDDIVAKKMYFTKMKDFVNSLTSKNWFFIEFSVLGFIGKLFRSKDLTDFVHFFLMFYETKPIDILLDDIFLIRVCISGEPVRSCLQRKKGFRIQYRPSLFQHVGTQSSFPGREQHLKDNYY
notes: GnT1IP-L, mouse, the long form of 417 aa (GnT1IP-S with 44 additional N-terminal amino acids), GenBank HM067443; In the homomer FRET experiments the second copy carried C-terminal monomeric mCherry (GnT1IP-L-mChe) instead of mVen; it is written as the same molecule; also called MGAT4D (long form); source: COS-7 or Lec1 CHO cells stably expressing it, or COS-7 cells transiently transfected; in …
fold increase of homomer FRET with chloroquine, MGAT1-HA co-expressed as competitor [1]: ~2 fold | FRET efficiency (untreated control) [2]: 32% | FRET efficiency (untreated control) (human MGAT1-mChe): 38%
